Laboratory results from patent US20190083587A1 (Novo Nordisk, published 2019).
The star is where a group is joined. Biotin = O=C1N[C@H]2[C@H](CS[C@H]2CCCCC(=O)*)N1; AEEA = NCCOCCOCC(=O)O

Experiments:
hTLT-1.126-162 = molecular target: T1, hTLT-1.126-162 (human); test: told in the HX-MS example; method not given
T1 construct: Made by solid phase peptide synthesis; not glycosylated; also called TLT-1 stalk peptide; chain P
T1 peptide: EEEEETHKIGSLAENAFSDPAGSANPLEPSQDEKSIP

[1] = molecular target: T2, biotinylated 16 mer peptide 40 from the stalk region of hTLT-1 (SMILES …); test: peptide-walking ELISA on streptavidin plate, triple determination
T2 construct: also called D 4
T2 peptide: {Biotin-AEEA}-THKIGSLAENAFSDPA-NH2
Protocol: (§1) The peptide walking ELISA defined the minimal binding region of the peptide. This was established by coating biotinylated peptides with one residue frameshift in the stalk region of TLT-1 in streptavidin plates followed by binding of the antibody of interest (mAb0061). A secondary antibody was added for detection and binding was measured at 450 nm. Positive control: binding to biotinylated TLT-1.

[2] = molecular target: T3, biotinylated 16 mer peptide 39 from the stalk region of hTLT-1 (SMILES …); test: as above
T3 construct: also called D 3
T3 peptide: {Biotin-AEEA}-ETHKIGSLAENAFSDP-NH2
Protocol: as §1

[3] = molecular target: T4, biotinylated 20 mer peptide 10 from stalk region of TLT-1 (N-terminal bio-Oeg (biotin, 8-amino-3,6-dioxaoctanoic acid spacer)); test: as above
T4 construct: also called A10
T4 peptide: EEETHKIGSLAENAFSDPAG
Protocol: as §1

[4] = molecular target: T5, biotinylated 20 mer peptide 12 from stalk region of TLT-1 (N-terminal bio-Oeg (biotin, 8-amino-3,6-dioxaoctanoic acid spacer)); test: as above
T5 construct: also called A12
T5 peptide: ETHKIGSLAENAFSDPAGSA
Protocol: as §1

[5] = molecular target: T6, biotinylated 20 mer peptide 11 from stalk region of TLT-1 (N-terminal bio-Oeg (biotin, 8-amino-3,6-dioxaoctanoic acid spacer)); test: as above
T6 construct: also called A11
T6 peptide: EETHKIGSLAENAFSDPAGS
Protocol: as §1

[6] = molecular target: T7, biotinylated 20 mer peptide 14 from stalk region of TLT-1 (N-terminal bio-Oeg (biotin, 8-amino-3,6-dioxaoctanoic acid spacer)); test: as above
T7 construct: also called B 2
T7 peptide: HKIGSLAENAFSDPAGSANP
Protocol: as §1

[7] = molecular target: T8, biotinylated 16 mer peptide 42 from the stalk region of hTLT-1 (SMILES …); test: as above
T8 construct: also called D 6
T8 peptide: {Biotin-AEEA}-KIGSLAENAFSDPAGS-NH2
Protocol: as §1

[8] = molecular target: T9, biotinylated 16 mer peptide 37 from the stalk region of hTLT-1 (SMILES …); test: as above
T9 peptide: {Biotin-AEEA}-EEETHKIGSLAENAFS-NH2
Protocol: as §1

[9] = molecular target: T10, biotinylated 16 mer peptide 36 from the stalk region of hTLT-1 (SMILES …); test: as above
T10 construct: also called C12
T10 peptide: {Biotin-AEEA}-EEEETHKIGSLAENAF-NH2
Protocol: as §1

[10] = molecular target: T11, biotinylated 20 mer peptide 13 from stalk region of TLT-1 (N-terminal bio-Oeg (biotin, 8-amino-3,6-dioxaoctanoic acid spacer)); test: as above
T11 construct: also called B 1
T11 peptide: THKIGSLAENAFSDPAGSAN
Protocol: as §1

[11] = molecular target: T12, biotinylated 20 mer peptide 15 from stalk region of TLT-1 (N-terminal bio-Oeg (biotin, 8-amino-3,6-dioxaoctanoic acid spacer)); test: as above
T12 construct: also called B 3
T12 peptide: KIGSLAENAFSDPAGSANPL
Protocol: as §1

[12] = molecular target: T13, biotinylated 20 mer peptide 16 from stalk region of TLT-1 (N-terminal bio-Oeg (biotin, 8-amino-3,6-dioxaoctanoic acid spacer)); test: as above
T13 construct: also called B 4
T13 peptide: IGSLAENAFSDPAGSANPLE
Protocol: as §1

[13] = molecular target: T14, biotinylated 20 mer peptide 6 from stalk region of TLT-1 (N-terminal bio-Oeg (biotin, 8-amino-3,6-dioxaoctanoic acid spacer)); test: as above
T14 construct: also called A 6
T14 peptide: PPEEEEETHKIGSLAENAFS
Protocol: as §1

[14] = molecular target: T15, biotinylated 20 mer peptide 9 from stalk region of TLT-1 (N-terminal bio-Oeg (biotin, 8-amino-3,6-dioxaoctanoic acid spacer)); test: as above
T15 construct: also called A 9
T15 peptide: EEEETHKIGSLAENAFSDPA
Protocol: as §1

[15] = molecular target: T16, biotinylated 20 mer peptide 8 from stalk region of TLT-1 (N-terminal bio-Oeg (biotin, 8-amino-3,6-dioxaoctanoic acid spacer)); test: as above
T16 construct: also called A 8
T16 peptide: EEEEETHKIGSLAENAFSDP
Protocol: as §1

[16] = molecular target: T17, biotinylated 20 mer peptide 7 from stalk region of TLT-1 (N-terminal bio-Oeg (biotin, 8-amino-3,6-dioxaoctanoic acid spacer)); test: as above
T17 construct: also called A 7
T17 peptide: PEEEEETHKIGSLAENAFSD
Protocol: as §1

[17] = molecular target: T18, biotinylated 20 mer peptide 5 from stalk region of TLT-1 (N-terminal bio-Oeg (biotin, 8-amino-3,6-dioxaoctanoic acid spacer)); test: as above
T18 construct: also called A 5
T18 peptide: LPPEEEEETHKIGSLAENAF
Protocol: as §1

[18] = molecular target: T19, biotinylated 16 mer peptide 38 from the stalk region of hTLT-1 (SMILES …); test: as above
T19 construct: also called D 2
T19 peptide: {Biotin-AEEA}-EETHKIGSLAENAFSD-NH2
Protocol: as §1

[19] = molecular target: T20, biotinylated 16 mer peptide 41 from the stalk region of hTLT-1 (SMILES …); test: as above
T20 construct: also called D 5
T20 peptide: {Biotin-AEEA}-HKIGSLAENAFSDPAG-NH2
Protocol: as §1

hTLT-1 ECD-His = molecular target: T21, hTLT-1 ECD-His (human, UniProt Q86YW5 16-162); test: SPR Biacore, mAb captured via human Fc mAb, TLT-1 as analyte
T21 construct: Extracellular domain of human TLT-1 with C-terminal His-6 tag; the range 16-168 is computed from these; also called TLT-1-His; His tagged human TLT1
T21 sequence: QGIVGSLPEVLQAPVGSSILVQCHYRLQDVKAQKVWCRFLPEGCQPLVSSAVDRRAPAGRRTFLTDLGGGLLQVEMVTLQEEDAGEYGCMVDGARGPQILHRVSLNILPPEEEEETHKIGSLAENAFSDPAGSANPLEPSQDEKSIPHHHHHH
Protocol: Method: The mAbs of interest were either immobilized directly to a CM5 chip or by capture via a human Fc capture mAb immobilized to a CM5 chip, while TLT-1-His was immobilized by capture via an anti-His mAb CM5 chip for analysis of Fabs.
mAb direct capture: The TLT-1 mAbs were immobilised to a level of approx 500-1000 RU on a CM5 chip (50 μg/ml diluted in Na-acetate, pH 4.0) using the standard procedure recommended by the supplier. Two-fold dilutions of TLT-1 from 200 nM to 0.2 nM were tested for binding to the mAbs. Running and dilution buffer: 10 mM HEPES, 150 mM, 0.005% p20, pH 7.4. Regeneration was obtained by 10 mM Glycine, pH 1.7. mAb capture via human Fc mAb: Human Fc mAb was immobilised to approx 10.000 RU. The mAb of interest was added (approx 100 nM). Two-fold dilutions of TLT-1 from 200 nM to 0.2 nM were tested. Running and dilution buffer: 10 mM HEPES, 150 mM, 0.005% p20, pH 7.4. Regeneration was obtained in 3 M MgCl₂.

B1: mAb0061 (antibody, human IgG4 S228P, kappa, V domains shown)
VH: EVKLLESGGGLVQPGGSLKLSCAASGFDFSRYWMTWVRQAPGKGLEWIGEINPDSSTINYNPSLKDKFIISRDNAKNTLYLQMSEVRSEDTALYYCASGVFTSWGQGTLVTVSA
VL: DVVMTQTPLSLPVSLGDQASISCRSSQSLVHRNGNTYFHWALQKPGQSPKLLIYKVSNRFSGVPDRFSGSGSGTDFTLKISRVEAEDLGVYFCSQSTHVPYTFGGGTKLEIKR
notes: Mouse VH/VL, human IgG4 / kappa; variant of mAb0012 (HC T60N, LC C36A, Kabat); also called antiTLT-1 0061mab; (0012HC.T60N)2
binding result (hTLT-1.126-162): binds | absorbance at 450 nm [1]: > 3 | absorbance at 450 nm [2]: > 3 | absorbance at 450 nm [3]: > 3 | absorbance at 450 nm [4]: > 3 | absorbance at 450 nm [5]: > 3 | absorbance at 450 nm [6]: > 3 | absorbance at 450 nm [7]: > 3 | absorbance at 450 nm [8]: > 3 | absorbance at 450 nm [9]: > 3 | absorbance at 450 nm [10]: > 3 | absorbance at 450 nm [11]: > 3 | absorbance at 450 nm [12]: > 3 | absorbance at 450 nm [13]: > 3 | absorbance at 450 nm [14]: > 3 | absorbance at 450 nm [15]: > 3 | absorbance at 450 nm [16]: > 3 | absorbance at 450 nm [17]: > 3 | absorbance at 450 nm [18]: > 3 | absorbance at 450 nm [19]: > 3 | Kd (hTLT-1 ECD-His): 3.75 nM | koff (hTLT-1 ECD-His): 0.0035 s⁻¹ | kon (hTLT-1 ECD-His): 932000 M⁻¹ s⁻¹
